This is an account of results in the supplement of paper PMC11246515.

± gives the standard deviation of the averaged measurements.

This series in a line: total protein half-life in vivo (active degradation + dilution); higher = more stable protein.
[1] abbreviates: E. coli NCM3722 delta-clpP delta-lon delta-hslV, growth: N-lim chemostat, doubling time 6 h.
The mark [2] stands for this setting: E. coli NCM3722 delta-clpP, growth: N-lim chemostat, doubling time 6 h.
Where [3] appears, read: E. coli NCM3722 delta-hslV, growth: N-lim chemostat, doubling time 6 h.
[4] abbreviates: E. coli NCM3722 delta-lon, growth: N-lim chemostat, doubling time 6 h.
The mark [5] stands for this setting: E. coli NCM3722 delta-smpB, growth: N-lim chemostat, doubling time 6 h.
The mark [6] stands for this setting: wild type E. coli NCM3722, growth: C-lim chemostat, doubling time 3 h.
Setting [7] is: wild type E. coli NCM3722, growth: C-lim chemostat, doubling time 6 h.
Where [8] appears, read: wild type E. coli NCM3722, growth: C-lim chemostat, doubling time 12 h.
The mark [9] stands for this setting: wild type E. coli NCM3722, growth: N-lim chemostat, doubling time 6 h.
Where [10] appears, read: wild type E. coli NCM3722, growth: N-lim chemostat, doubling time 12 h.
[11] abbreviates: wild type E. coli NCM3722, growth: P-lim chemostat, doubling time 6 h.
Where [12] appears, read: wild type E. coli NCM3722, growth: P-lim chemostat, doubling time 12 h.

In the case of “MKHYSIQPANLEFNAEGTPVSRDFDDVYFSNDNGLEETRYVFLGGNQLEVRFPEHPHPLFVVAESGFGTGLNFLTLWQAFDQFREAHPQAQLQRLHFISFEKFPLTRADLALAHQHWPELAPWAEQLQAQWPMPLPGCHRLLLDEGRVTLDLWFGDINELTSQLDDSLNQKVDAWFLDGFAPAKNPDMWTQNLFNAMARLARPGGTLATFTSAGFVRRGLQDAGFTMQKRKGFGRKREMLCGVMEQTLPLPCSAPWFNRTGSSKREAAIIGGGIASALLSLALLRRGWQVTLYCADEAPALGASGNRQGALYPLLSKHDEALNRFFSNAFTFARRFYDQLPVKFDHDWCGVTQLGWDEKSQHKIAQMLSMDLPAELAVAVEANAVEQITGVATNCSGITYPQGGWLCPAELTRNVLELAQQQGLQIYYQYQLQNLSRKDDCWLLNFAGDQQATHSVVVLANGHQISRFSQTSTLPVYSVAGQVSHIPTTPELAELKQVLCYDGYLTPQNPANQHHCIGASYHRGSEDTAYSEDDQQQNRQRLIDCFPQAQWAKEVDVSDKEARCGVRCATRDHLPMVGNVPDYEATLVEYASLAEQKDEAVSAPVFDDLFMFAALGSRGLCSAPLCAEILAAQMSDEPIPMDASTLAALNPNRLWVRKLLKGKAVKAG”, the “total protein half-life in vivo” value by setting is: under setting [1], 4.59 ± 0.099 h; under setting [2], 4.792 ± 0.021 h; under setting [3], 4.36 ± 0.24 h; under setting [4], 4.42 ± 0.19 h; under setting [5], 3.84 ± 0.39 h; under setting [6], 2.83 ± 0.03 h. Also, the “total protein half-life in vivo” value by setting is: under setting [7], 5.48 ± 0.74 h; under setting [8], 9.73 ± 0.51 h; under setting [9], 4.41 ± 0.17 h; under setting [10], 8.97 ± 0.84 h; under setting [11], 4.57 ± 0.22 h; under setting [12], 7.48 ± 1 h.

In the case of “MRLGTFHKKKRFYINKIKINFLSFLFRNKINNQITDPAQVKSCLIIHDNNKLGDLIVLSSIYRELYSKGVKITLLTNRKGGEFLSNNKNIFEFCIKESTGFLEMLTLCKHLRDLQFDIVLDPFETMPSFKHSLILSSLKDSYILGFDHWYKRYYSFYHPHDECLKEHMSTRAIEILKHIYGEGKFSTNYDLHLPVDVEDKIKEFIGDTRIVIINPLGAKKICRLTFEQIKVIYQEVKTHFENYRIIFTGLPQDLLTIPILEIETLPFDEFIYTVALTKYSDFVISVDTALVHIAAAYHKPTLAFYPNSRTPEYPSHLIWSPNHHKSIQIVSPTYTVKDIDTETLTNSVKRLSCIDKK”, the “total protein half-life in vivo” value is, setting by setting: under setting [1], 5.5 ± 0.61 h; under setting [2], 6.56 ± 1.5 h; under setting [3], 5.9 ± 0.57 h; under setting [5], 5.44 ± 0.1 h; under setting [6], 2.96 ± 0.088 h; under setting [8], 11.5 ± 0.51 h. Further, the “total protein half-life in vivo” value runs as follows: under setting [9], 5.67 ± 0.47 h; under setting [10], 12.8 ± 1.3 h; under setting [11], 5.23 ± 0.19 h; under setting [12], 12.2 ± 0.22 h.

With “MVRIYTLTLAPSLDSATITPQIYPEGKLRCTAPVFEPGGGGINVARAIAHLGGSATAIFPAGGATGEHLVSLLADENVPVATVEAKDWTRQNLHVHVEASGEQYRFVMPGAALNEDEFRQLEEQVLEIESGAILVISGSLPPGVKLEKLTQLISAAQKQGIRCIVDSSGEALSAALAIGNIELVKPNQKELSALVNRELTQPDDVRKAAQEIVNSGKAKRVVVSLGPQGALGVDSENCIQVVPPPVKSQSTVGAGDSMVGAMTLKLAENASLEEMVRFGVAAGSAATLNQGTRLCSHDDTQKIYAYLSR”, the “total protein half-life in vivo” value under setting [1] turned out to be 5.23 ± 0.52 h; the “total protein half-life in vivo” value under setting [2] came out at 4.483 ± 0.036 h; the “total protein half-life in vivo” value under setting [3] was 4.05 ± 0.088 h; the “total protein half-life in vivo” value under setting [4] amounted to 4.74 ± 0.28 h; the “total protein half-life in vivo” value under setting [5] came out at 3.8 ± 0.18 h; the “total protein half-life in vivo” value under setting [6] was found to be 3.32 ± 0.21 h. Moreover, the “total protein half-life in vivo” value by setting is: under setting [7], 6.09 ± 0.64 h; under setting [8], 10.7 ± 1.1 h; under setting [9], 4.436 ± 0.02 h; under setting [10], 6.92 ± 0.5 h; under setting [11], 5.84 ± 0.18 h; under setting [12], 11.864 ± 0.0075 h.

As for “MTGQSSSQAATPIQWWKPALFFLVVIAGLWYVKWEPYYGKAFTAAETHSIGKSILAQADANPWQAALDYAMIYFLAVWKAAVLGVILGSLIQVLIPRDWLLRTLGQSRFRGTLLGTLFSLPGMMCTCCAAPVAAGMRRQQVSMGGALAFWMGNPVLNPATLVFMGFVLGWGFAAIRLVAGLVMVLLIATLVQKWVRETPQTQAPVEIDIPEAQGGFFSRWGRALWTLFWSTIPVYILAVLVLGAARVWLFPHADGAVDNSLMWVVAMAVAGCLFVIPTAAEIPIVQTMMLAGMGTAPALALLMTLPAVSLPSLIMLRKAFPAKALWLTGAMVAVSGVIVGGLALLF”, the “total protein half-life in vivo” value was 4.43 ± 0.43 h under setting [5] and 5.72 h under setting [10].

As for “MSQNLDATAINQIHALISAQGVNEIISKIGADAVALPENFRIHDLEKFNLNRFRFRGALSTASIDDFTRYSKDLADEGTRCFIDADNMRAVSVLNLGTIDEPGHADNTATLKLKKTAPFSALLSVNGERNSQKSLAEWIEDWADYLVGFDANGDAIQATKAAAAIRKITIEANQTADFEDNDFSGKRSLMESVEAKTKDIMPVAFEFKCVPFEGLKERPFKLRLSIITGDRPVLVLRIIQLEAVQEDMANEFRDLLVEKFKDSKVETFIGTFTA”, the “total protein half-life in vivo” value was found to be 3.03 ± 0.25 h under setting [1]; 3.16 h under setting [2]; 2.69 h under setting [6]; 5.13 ± 0.22 h under setting [7]; 9.79 ± 0.92 h under setting [8]; 5.29 h under setting [10]. Further, the “total protein half-life in vivo” value came to 5.71 ± 0.56 h under setting [11] and 15.2 ± 0.98 h under setting [12].

In the case of “MPACELRPATQYDTDAVYALICELKQAEFDHHAFRVGFNANLRDPNMRYHLALLDGEVVGMIGLHLQFHLHHVNWIGEIQELVVMPQARGLNVGSKLLAWAEEEARQAGAEMTELSTNVKRHDAHRFYLREGYEQSHFRFTKAL”, the “total protein half-life in vivo” value stood at 4.67 ± 0.61 h under setting [1]; 2.53 ± 0.34 h under setting [2]; 1.8 ± 0.17 h under setting [3]; 2.76 ± 0.12 h under setting [4]; 1.58 ± 0.037 h under setting [5]; 1.61 ± 0.22 h under setting [6]. The “total protein half-life in vivo” value runs as follows: under setting [7], 2.49 ± 0.34 h; under setting [8], 2.45 h; under setting [9], 1.93 ± 0.3 h; under setting [10], 2.54 ± 0.055 h; under setting [11], 3.65 ± 0.24 h; under setting [12], 6.57 ± 0.13 h.
